IntAct's records for PubMed 11967127

B1: Disabled homolog 2 (Mus musculus), P98078 (parent)
chain: MSNEVETSTTNGQPDQQAAPKAPSKKEKKKGSEKTDEYLLARFKGDGVKYKAKLIGIDDVPDARGDKMSQDSMMKLKGMAAAGRSQGQHKQRIWVNISLSGIKIIDEKTGVIEHEHPVNKISFIARDVTDNRAFGYVCGGEGQHQFFAIKTGQQAEPLVVDLKDLFQVIYNVKKKEEDKKKVEEANKAEENGSEALMTLDDQANKLKLGVDQMDLFGDMSTPPDLNSPTESKDILLVDLNSEIDTNQNSLRENPFLTNGVTSCSLPRPKPQASFLPENAFSANLNFFPTPNPDPFRDDPFAQPDQSAPSSFDSLTSPDQKKASLSSSSTPQSKGPLNGDTDYFGQQFDQLSNRTGKPEAQGGPWPYPSSQTQQAVRTQNGVSEREQNGFHIKSSPNPFVGSPPKGLSVPNGVKQDLESSVQSSAHDSIAIIPPPQSTKPGRGRRTAKSSANDLLASDIFASEPPGQMSPTGQPAVPQSNFLDLFKGNAPAPVGPLVGLGTVPVTPPQAGPWTPVVYSPSTTVVPGAIISGQPPSFRQPLVFGTTPAVQVWNQSPSFATPASPPPPTVWCPTTSVAPNAWSSTSPLGNPFQSNNIFPPPTMSTQSSPQPMMSSVLATPPQPPPRNGPLKDIPSDAFTGLDPLGDKEVKEVKEMFKDFQLRQPPLVPSRKGETPPSGTSSAFSSYFNNKVGIPQEHVDHDDFDANQLLNKINEPPKPAPRQGVLLGTKSADNSLENPFSKGFSSSNPSVVSQPASSDPHRSPFGNPFA
B2: Disabled homolog 1 (Mus musculus), P97318 (parent)
chain: MSTETELQVAVKTSAKKDSRKKGQDRSEATLIKRFKGEGVRYKAKLIGIDEVSAARGDKLCQDSMMKLKGVVAGARSKGEHKQKIFLTISFGGIKIFDEKTGALQHHHAVHEISYIAKDITDHRAFGYVCGKEGNHRFVAIKTAQAAEPVILDLRDLFQLIYELKQREELEKKAQKDKQCEQAVYQTILEEDVEDPVYQYIVFEAGHEPIRDPETEENIYQVPTSQKKEGVYDVPKSQPNSQPLEDFESRFAAATPNRNLSMDFDELLEATKVSAVTQLELFGDMSTPPDITSPPTPATPGDAFLPSSSQTLPGSADVFGSMSFGTAAVPSGYVAMGAVLPSFWGQQPLVQQQIAMGAQPPVAQVIPGAQPIAWGQPGLFPATQQAWPTVAGQFPPAAFMPTQTVMPLAAAMFQGPLTPLATVPGTNDSARSSPQSDKPRQKMGKESFKDFQMVQPPPVPSRKPDQPSLTCTSEAFSSYFNKVGVAQDTDDCDDFDISQLNLTPVTSTTPSTNSPPTPAPRQSSPSKSSASHVSDPTADDIFEEGFESPSKSEEQEAPDGSQASSTSDPFGEPSGEPSGDNISPQDGS

Variants of: B1
Settings: with myo6_chick MYO6, Q9I8D1
Target sequence in this assay (Q9I8D1 whole entry): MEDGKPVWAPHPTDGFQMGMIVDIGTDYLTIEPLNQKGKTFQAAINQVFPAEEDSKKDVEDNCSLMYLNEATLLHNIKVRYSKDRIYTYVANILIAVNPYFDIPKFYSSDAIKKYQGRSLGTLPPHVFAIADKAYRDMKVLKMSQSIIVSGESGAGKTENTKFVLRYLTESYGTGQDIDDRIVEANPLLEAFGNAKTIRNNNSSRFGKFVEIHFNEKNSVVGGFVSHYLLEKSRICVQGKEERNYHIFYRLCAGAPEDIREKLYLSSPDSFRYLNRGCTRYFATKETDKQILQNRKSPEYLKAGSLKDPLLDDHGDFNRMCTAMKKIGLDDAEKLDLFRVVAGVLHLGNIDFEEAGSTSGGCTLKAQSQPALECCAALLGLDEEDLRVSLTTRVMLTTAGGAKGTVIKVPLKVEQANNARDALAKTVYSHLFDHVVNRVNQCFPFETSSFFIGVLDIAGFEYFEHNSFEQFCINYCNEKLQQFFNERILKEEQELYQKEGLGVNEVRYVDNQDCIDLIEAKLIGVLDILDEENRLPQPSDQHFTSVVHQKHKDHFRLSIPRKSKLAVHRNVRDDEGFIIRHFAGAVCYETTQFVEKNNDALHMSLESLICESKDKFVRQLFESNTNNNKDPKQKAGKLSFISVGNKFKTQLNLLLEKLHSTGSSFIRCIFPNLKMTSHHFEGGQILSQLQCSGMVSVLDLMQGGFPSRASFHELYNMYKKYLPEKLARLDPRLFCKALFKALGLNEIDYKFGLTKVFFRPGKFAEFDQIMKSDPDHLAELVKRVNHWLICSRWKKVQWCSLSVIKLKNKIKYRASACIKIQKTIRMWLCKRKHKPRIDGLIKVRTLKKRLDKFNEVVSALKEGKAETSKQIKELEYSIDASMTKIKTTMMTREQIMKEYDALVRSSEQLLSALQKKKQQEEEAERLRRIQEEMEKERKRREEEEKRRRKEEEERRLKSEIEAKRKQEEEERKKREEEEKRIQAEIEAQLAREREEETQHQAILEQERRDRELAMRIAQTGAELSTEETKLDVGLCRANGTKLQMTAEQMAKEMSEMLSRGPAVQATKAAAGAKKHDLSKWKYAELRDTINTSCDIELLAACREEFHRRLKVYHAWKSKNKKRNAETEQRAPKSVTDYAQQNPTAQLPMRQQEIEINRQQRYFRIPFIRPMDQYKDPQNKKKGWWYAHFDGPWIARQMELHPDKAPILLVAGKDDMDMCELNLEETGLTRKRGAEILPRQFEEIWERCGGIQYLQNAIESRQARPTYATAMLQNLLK

Variant	effect of a mutation on the interaction
S682A;Y683A;F684A	disrupting interaction
D699A;F700A;D701A	decreasing interaction

Variants of: B2
Settings: with myo6_chick MYO6, Q9I8D1
Target sequence in this assay (Q9I8D1 whole entry): as above

Variant	effect of a mutation on the interaction
S478A;Y479A;F480A	decreasing interaction
